Data on 4 substances can be found in patent publication US6017743A, “Siaα 2,3, Galβ 1, 4Glc NAcα 2,8-sialyltransferase” (The Institute of Physical and Chemical Research, priority 1995, dated 2000).

Experiment [1] deals with fetuin.
Experiment [2] addresses fetuin. This is another data set of the same source.
For experiment [3], the target named is asialofetuin.
The target in experiment [4] is ovomucoid.
In experiment [5] the target is bovine submaxillary mucin (bovine).
For experiment [6], the target named is α1-acid glycoprotein.
The target of experiment [7] is transferrin (bovine) (bovine) (UniProt Q29443).
The target in experiment [8] is asialo-α1-acid glycoprotein.
Experiment [9] concerns the target T1, mouse Siaα 2,3Galβ 1,4GlcNAc α 2,8-sialyltransferase O3 (ST8Sia III), protein A-fused soluble enzyme, SEQ. ID. No.3 (active domain of SEQ. ID. No.1) (Mus musculus, UniProt Q64689).
T1 construct: ID; No.3 and 4, respectively; IgM signal peptide (N); made in house; host or cells: COS-7 cells (transient transfection with pcDSA-O3; secreted into the medium, adsorbed to IgG-Sepharose)
T1 sequence (Q64689 42-380): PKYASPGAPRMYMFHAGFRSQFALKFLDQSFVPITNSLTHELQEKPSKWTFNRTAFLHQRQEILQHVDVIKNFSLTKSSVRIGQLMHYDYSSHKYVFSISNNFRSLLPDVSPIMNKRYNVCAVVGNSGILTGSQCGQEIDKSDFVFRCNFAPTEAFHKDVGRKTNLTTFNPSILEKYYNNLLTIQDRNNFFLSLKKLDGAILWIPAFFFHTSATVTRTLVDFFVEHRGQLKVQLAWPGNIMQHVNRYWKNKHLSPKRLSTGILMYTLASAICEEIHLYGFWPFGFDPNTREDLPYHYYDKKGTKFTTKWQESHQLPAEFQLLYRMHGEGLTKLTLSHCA
Briefly: Kinetic properties of the sialyltransferase of the present invention (sialyltransfer from CMP-[14C]NeuAc to glycolipid acceptors, HPTLC/radio image analysis). It counts as biochemical. Conditions: acceptor substrate, Table 2. An excerpt: To facilitate functional analysis of the sialyltransferase of the present invention, expression plasmid pcDSA-O3 was constructed and transfected into COS-7 cells, and the protein A fused-protein containing an active domein of the sialyltransferase of the present invention (i.e. a soluble enzyme; hereinafter referred to as the fused protein of the present invention) was adsorbed to IgG-Sepharose in the medium and used as the enzyme source. The amino acid sequence of the fused protein and the gene encoding the fused protein are shown as SEQ. ID. No.3 and 4, respectively.
A truncated form of the sialyltransferase of the present invention (ST8Sia-III), lacking the first 39 amino acids of the open reading frame, was prepared by PCR amplification with 5'- and 3'-primers containing a XhoI site, respectively (5'-CATCTTCTCGAGTCCC AAGTACGCCAGCCCG-3' and 5'-[…]-3'). […]
The single insertion in the correct orientation was finally analyzed by restriction enzyme treatment and DNA sequencing. […]
For glycolipid acceptors, the incubation mixtures were applied on a C-18 column (Sep-Pak Vac, 100 mg; Waters, Milford, Mass., U.S.A.) which was washed with water. […] The radioactive materials in glycoproteins or glycolipids were visualized with a BAS2000 radio image analyzer (Fuji Film, Japan), and the radioactivity incorporated into acceptor glycoproteins was counted.

In general, Km refers to the concentration of substrate that gives half-maximal velocity. Turning to “protein A-fused soluble enzyme containing an active domain of Siaα2,3Galβ1,4GlcNAc α2,8-sialyltransferase O3 (mouse ST8Sia-III)”, the Km in experiment [1] was 20 µM. For the same substance, the sialyltransferase activity toward the acceptor (pmol/ml medium, h) (pmol/ml medium, h) was 92.1 in [2]; less than 0.1 in experiment [3]; 1.7 in experiment [4]; less than 0.1 in experiment [5]; 7.8 in [6]; 1.3 in [7]. Besides, the sialyltransferase activity toward the acceptor (pmol/ml medium, h) (pmol/ml medium, h) in [8] was less than 0.1.
Take “Siaα 2,3Galβ 1,4GlcNAc β 1,4Galβ 1,4Glcβ1,1Cer [2,3-SPG]”: in experiment [9] (0.1 M sodium cacodylate pH 6.0, 37° C., CMP-[14C]NeuAc donor), the Km stood at 82 µM. Besides, in experiment [9], the Vmax is given as 9.2 pmol/h,ml.
For the substance “mouse ST8Sia II (STX) (from UniProt O35696) (enzyme)”, the sialyltransferase activity toward the acceptor (pmol/ml medium, h) (pmol/ml medium, h) was 8 in experiment [2]; less than 0.1 in experiment [3]; 1.3 in [4]; less than 0.1 in experiment [5]; 7.6 in [6]; 0.38 in [7]. Moreover, the sialyltransferase activity toward the acceptor (pmol/ml medium, h) (pmol/ml medium, h) in experiment [8] is less than 0.1.
Turning to “human ST8Sia I (GD3 synthase) expressed by Namalwa cells (from UniProt Q92185) (enzyme)”, the sialyltransferase activity toward the acceptor (pmol/ml medium, h) (pmol/ml medium, h) in experiment [2], in experiment [3], in [4], in experiment [5], in [6] and in experiment [7] was less than 0.01 throughout. This substance also returned a sialyltransferase activity toward the acceptor (pmol/ml medium, h) (pmol/ml medium, h) in [8] of less than 0.01.
